In patent US20230151111A1 (AKESO BIOPHARMA, published 2023):

T1: human NT5E(1-552)-his (human, UniProt P21589 27-552)
T1 construct: The entry starts at Met 1
T1 sequence: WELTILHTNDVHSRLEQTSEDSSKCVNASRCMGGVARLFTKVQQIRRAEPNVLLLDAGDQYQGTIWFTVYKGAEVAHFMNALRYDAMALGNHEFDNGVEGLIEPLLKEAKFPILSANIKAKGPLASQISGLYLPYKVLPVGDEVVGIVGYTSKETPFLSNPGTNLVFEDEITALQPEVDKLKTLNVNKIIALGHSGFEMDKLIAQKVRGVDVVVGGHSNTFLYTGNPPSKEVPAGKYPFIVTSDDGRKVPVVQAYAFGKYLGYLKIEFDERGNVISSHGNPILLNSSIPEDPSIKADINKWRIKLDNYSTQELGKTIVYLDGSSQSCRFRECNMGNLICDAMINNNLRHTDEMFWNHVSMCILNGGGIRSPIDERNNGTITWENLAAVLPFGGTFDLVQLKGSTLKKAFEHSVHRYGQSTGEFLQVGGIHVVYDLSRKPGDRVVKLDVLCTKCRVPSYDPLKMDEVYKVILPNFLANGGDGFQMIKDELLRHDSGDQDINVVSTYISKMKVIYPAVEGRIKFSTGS


Legend:
[1] = biological target: T2, human PD-1-mFc-biotin (human, UniProt Q15116 25-170, limits assumed, biotin label, site not stated); experiment: competitive ELISA, competitor coated PD-L1-mFc; antibody 5 ug/mL diluted 1:3
T2 sequence (Q15116 other isoform, or with tags, fused parts or gaps limits assumed): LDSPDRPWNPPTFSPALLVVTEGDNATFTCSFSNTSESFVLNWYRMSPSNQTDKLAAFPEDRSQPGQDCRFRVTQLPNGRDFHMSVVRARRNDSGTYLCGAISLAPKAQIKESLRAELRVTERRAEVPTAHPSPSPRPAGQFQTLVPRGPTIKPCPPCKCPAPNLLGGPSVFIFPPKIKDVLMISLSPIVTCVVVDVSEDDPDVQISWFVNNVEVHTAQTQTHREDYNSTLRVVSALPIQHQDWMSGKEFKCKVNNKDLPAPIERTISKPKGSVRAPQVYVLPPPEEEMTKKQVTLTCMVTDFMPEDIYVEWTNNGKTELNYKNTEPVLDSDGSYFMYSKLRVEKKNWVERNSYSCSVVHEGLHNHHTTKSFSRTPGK
Description: (§1) After incubation, the microplate was blocked with a PBS solution containing 1% BSA at 37° C. for 2 h. After blocking, the plate was washed three times and dried. The antibody was serially diluted to 7 concentrations in a gradient ratio of 1:3 on a dilution plate with 10 μg/mL as the starting concentration, and a blank control was set. […] Then the mixture after reaction was added to the coated microplate, and the microplate was incubated for at 37° C. for 30 min. After incubation, the plate was washed three times with PBST and dried. SA-HRP (KPL, 14-30-00) working solution was added, and the plate was incubated at 37° C. for 30 min. After incubation, the plate was washed four times and patted dry. Then TMB (Neogen, 308177) was added in the dark for chromogenesis for 5 min, and a stop solution was added to terminate chromogenic reaction. Then the microplate was put into a microplate reader immediately, and the OD value of each well in the microplate was read at 450 nm. The data were analyzed and processed by SoftMax Pro 6.2.1.

[2] = biological target: T3, PD-1-mFc (human, UniProt Q15116 25-170, limits assumed); experiment: BLI (Fortebio), antibody on AHC sensor, PD-1-mFc 0.6-50 nM, 37 C
T3 construct: also called human PD-1-mFc
T3 sequence (Q15116 other isoform, or with tags, fused parts or gaps limits assumed): as above
Description: The sample dilution buffer was PBST, 0.1% BSA, pH 7.4. The antibody was immobilized on an AHC sensor at a concentration of 5 μg/mL with an immobilization height of about 0.4 nm. The sensor was equilibrated in a buffer for 60 s, and the binding of the immobilized antibody on the sensor to the antigen PD-1-mFc at concentrations of 0.6-50 nM (three-fold dilution) was determined in 120 s. The protein was dissociated in the buffer for 180 s. The detection temperature was 37° C., the detection frequency was 0.3 Hz, and the sample plate shaking rate was 1000 rpm. The data were analyzed by 1:1 model fitting to obtain affinity constants.

[3] = biological target: T1, human NT5E(1-552)-his; experiment: BLI (Fortebio), antibody on Protein A sensor, NT5E(1-552)-his 3.125-200 nM, 37 C
Description: The sample dilution buffer was PBST, pH 7.4. The antibody was immobilized on a Protein A sensor at a concentration of 5 μg/mL with the immobilization time of about 15 s. […] The protein was dissociated in the buffer for 600 s. The sensor was refreshed with 10 mM Gly solution, pH 1.5. The detection temperature was 37° C., the detection frequency was 0.6 Hz, and the sample plate shaking rate was 1000 rpm. The data were analyzed by 1:1 model fitting to obtain affinity constants.

[4] = biological target: T2, human PD-1-mFc-biotin; experiment: competitive ELISA, competitor coated PD-L1-mFc; antibody 5 ug/mL
Description: as §1

OD450 [1]	Kd [2]	koff [2]	kon [2]	Kd [3]	koff [3]	kon [3]	OD450 [4]	Binder
0.05 OD	176 pM	7.37e-05 s⁻¹	419000 M⁻¹ s⁻¹	229 pM	4.13e-05 s⁻¹	181000 M⁻¹ s⁻¹		P1D7V01 (bispecific antibody, human IgG1, kappa, Morrison form IgG-scFv) heavy: not shown light: DIQMTQSPSSMSASVGDRVTFTCRASQDINTYLSWFQQKPGKSPKTLIYRANRLVSGVPSRFSGSGSGQDYTLTISSLQPEDMATYYCLQYDEFPLTFGAGTKLELKRTVAAPSVFIFPPSDEQLKSGTASVVCLLNNFYPREAKVQWKVDNALQSGNSQESVTEQDSKDSTYSLSSTLTLSKADYEKHKVYACEVTHQGLSSPVTKSFNRGEC
							0.048 OD	P1D7V03 (bispecific antibody, human IgG1, kappa, Morrison form IgG-scFv) heavy: not shown light: DIQMTQSPSSMSASVGDRVTFTCRASQDINTYLSWFQQKPGKSPKTLIYRANRLVSGVPSRFSGSGSGQDYTLTISSLQPEDMATYYCLQYDEFPLTFGAGTKLELKRTVAAPSVFIFPPSDEQLKSGTASVVCLLNNFYPREAKVQWKVDNALQSGNSQESVTEQDSKDSTYSLSSTLTLSKADYEKHKVYACEVTHQGLSSPVTKSFNRGEC
